Measured values taken from patent US20210246166A1 (Bayer, published 2021).
Bridge positions count the residues as written; N and C are the ends. Square brackets hold non-standard residues; d marks the D form. Ends that are not written are not given here. Oic = O=C(O)[C@@H]1C[C@@H]2CCCC[C@@H]2N1; Phe(2-Cl) = N[C@@H](Cc1ccccc1Cl)C(=O)O; Nva(3-Et) = CCC(CC)[C@H](N)C(=O)O; NMeI = CC[C@H](C)[C@H](NC)C(=O)O; tBuAla = CC(C)(C)C[C@H](N)C(=O)O; Chg = N[C@H](C(=O)O)C1CCCCC1; NMeC = CN[C@@H](CS)C(=O)O; NMeA = CN[C@@H](C)C(=O)O; Orn = NCCC[C@H](N)C(=O)O; Nva = CCC[C@H](N)C(=O)O; Abu = CC[C@H](N)C(=O)O; Sar = CNCC(=O)O

T1: recombinant rat MASP1 active protease (amino acids 302-704, C-terminal His Tag) (rat, UniProt Q8CHN8 302-704)
T1 sequence: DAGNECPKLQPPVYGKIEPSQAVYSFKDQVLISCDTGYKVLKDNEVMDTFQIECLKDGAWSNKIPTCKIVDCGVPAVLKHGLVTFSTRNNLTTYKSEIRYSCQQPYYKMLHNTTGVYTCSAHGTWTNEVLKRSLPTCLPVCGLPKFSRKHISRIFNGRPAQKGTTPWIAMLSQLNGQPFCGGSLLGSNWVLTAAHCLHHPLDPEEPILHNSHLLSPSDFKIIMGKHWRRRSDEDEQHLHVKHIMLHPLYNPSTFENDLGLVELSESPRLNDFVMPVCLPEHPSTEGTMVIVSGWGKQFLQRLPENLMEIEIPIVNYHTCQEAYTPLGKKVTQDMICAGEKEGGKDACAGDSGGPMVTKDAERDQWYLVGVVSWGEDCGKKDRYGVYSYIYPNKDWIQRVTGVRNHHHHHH


Biological target: T1, recombinant rat MASP1 active protease …
Assay: cell-based or functional assay

rat MASP1 IC50 [nM]	Binder
380	[Orn]ICSRS[tBuAla]PPICI-NH2 (disulfide 3-11; N-terminus assumed; SMILES CC[C@H](C)[C@H](NC(=O)[C@@H]1CSSC[C@H](NC(=O)[C@@H](NC(=O)[C@@H](N)CCCN)[C@@H](C)CC)C(=O)N[C@@H](CO)C(=O)N[C@@H](CCCNC(=N)N)C(=O)N[C@@H](CO)C(=O)N[C@@H](CC(C)(C)C)C(=O)N2CCC[C@H]2C(=O)N2CCC[C@H]2C(=O)N[C@@H]([C@@H](C)CC)C(=O)N1)C(N)=O) [Example 186: (Orn)-IC+SRS-((tBu)A)-PPIC+I-NH2]
240	AICSRSLPP[Chg]CIPD-OH (disulfide 3-11; N-terminus assumed; SMILES CC[C@H](C)[C@H](NC(=O)[C@H](C)N)C(=O)N[C@H]1CSSC[C@@H](C(=O)N[C@H](C(=O)N2CCC[C@H]2C(=O)N[C@@H](CC(=O)O)C(=O)O)[C@@H](C)CC)NC(=O)[C@H](C2CCCCC2)NC(=O)[C@@H]2CCCN2C(=O)[C@@H]2CCCN2C(=O)[C@H](CC(C)C)NC(=O)[C@H](CO)NC(=O)[C@H](CCCNC(=N)N)NC(=O)[C@H](CO)NC1=O) [Example 222: AIC+SRSLPP-(Chg)-C+IPD-OH]
19	AICSRS[tBuAla]PPICIDD-OH (disulfide 3-11; N-terminus assumed; SMILES CC[C@H](C)[C@H](NC(=O)[C@H](C)N)C(=O)N[C@H]1CSSC[C@@H](C(=O)N[C@H](C(=O)N[C@@H](CC(=O)O)C(=O)N[C@@H](CC(=O)O)C(=O)O)[C@@H](C)CC)NC(=O)[C@H]([C@@H](C)CC)NC(=O)[C@@H]2CCCN2C(=O)[C@@H]2CCCN2C(=O)[C@H](CC(C)(C)C)NC(=O)[C@H](CO)NC(=O)[C@H](CCCNC(=N)N)NC(=O)[C@H](CO)NC1=O) [Example 210: AIC+SRS-((tBu)A)-PPIC+IDD-OH]
370	[Abu]ICSRSLPPICIPD-NH2 (disulfide 3-11; N-terminus assumed; SMILES CC[C@H](N)C(=O)N[C@H](C(=O)N[C@H]1CSSC[C@@H](C(=O)N[C@H](C(=O)N2CCC[C@H]2C(=O)N[C@@H](CC(=O)O)C(N)=O)[C@@H](C)CC)NC(=O)[C@H]([C@@H](C)CC)NC(=O)[C@@H]2CCCN2C(=O)[C@@H]2CCCN2C(=O)[C@H](CC(C)C)NC(=O)[C@H](CO)NC(=O)[C@H](CCCNC(=N)N)NC(=O)[C@H](CO)NC1=O)[C@@H](C)CC) [Example 230: (Abu)-IC+SRSLPPIC+IPD-NH2]
240	[Nva]ICSRSLPPICIPD-NH2 (disulfide 3-11; N-terminus assumed; SMILES CCC[C@H](N)C(=O)N[C@H](C(=O)N[C@H]1CSSC[C@@H](C(=O)N[C@H](C(=O)N2CCC[C@H]2C(=O)N[C@@H](CC(=O)O)C(N)=O)[C@@H](C)CC)NC(=O)[C@H]([C@@H](C)CC)NC(=O)[C@@H]2CCCN2C(=O)[C@@H]2CCCN2C(=O)[C@H](CC(C)C)NC(=O)[C@H](CO)NC(=O)[C@H](CCCNC(=N)N)NC(=O)[C@H](CO)NC1=O)[C@@H](C)CC) [Example 216: (Nva)-IC+SRSLPPIC+IPD-NH2]
260	[Sar]ICSRSLPPICIPD-NH2 (disulfide 3-11; also: HCl salt) [Example 228: ((N-Me)G)-IC+SRSLPPIC+IPD-NH2 (HCl salt)]
78	AICSRS[tBuAla]P[Oic]ICIPD-NH2 (disulfide 3-11; N-terminus assumed; SMILES CC[C@H](C)[C@H](NC(=O)[C@H](C)N)C(=O)N[C@H]1CSSC[C@@H](C(=O)N[C@H](C(=O)N2CCC[C@H]2C(=O)N[C@@H](CC(=O)O)C(N)=O)[C@@H](C)CC)NC(=O)[C@H]([C@@H](C)CC)NC(=O)[C@@H]2C[C@@H]3CCCC[C@@H]3N2C(=O)[C@@H]2CCCN2C(=O)[C@H](CC(C)(C)C)NC(=O)[C@H](CO)NC(=O)[C@H](CCCNC(=N)N)NC(=O)[C@H](CO)NC1=O) [Example 234: AIC+SRS-((tBu)A)-P-(Oic)-I-C+IPD-NH2]
330	AICSRSLPP[Nva(3-Et)]CIPD-NH2 (disulfide 3-11; N-terminus assumed; SMILES CCC(CC)[C@@H]1NC(=O)[C@@H]2CCCN2C(=O)[C@@H]2CCCN2C(=O)[C@H](CC(C)C)NC(=O)[C@H](CO)NC(=O)[C@H](CCCNC(=N)N)NC(=O)[C@H](CO)NC(=O)[C@@H](NC(=O)[C@@H](NC(=O)[C@H](C)N)[C@@H](C)CC)CSSC[C@@H](C(=O)N[C@H](C(=O)N2CCC[C@H]2C(=O)N[C@@H](CC(=O)O)C(N)=O)[C@@H](C)CC)NC1=O) [Example 209: AIC+SRSLPP-((S)-2-amino-3-ethyl-pentanoic acid)-C+IPD-NH2]
38	AICSRS[tBuAla]P[Oic]I[NMeC]IPD-OH (disulfide 3-11; N-terminus assumed; SMILES CC[C@H](C)[C@H](NC(=O)[C@H](C)N)C(=O)N[C@H]1CSSC[C@@H](C(=O)N[C@H](C(=O)N2CCC[C@H]2C(=O)N[C@@H](CC(=O)O)C(=O)O)[C@@H](C)CC)N(C)C(=O)[C@H]([C@@H](C)CC)NC(=O)[C@@H]2C[C@@H]3CCCC[C@@H]3N2C(=O)[C@@H]2CCCN2C(=O)[C@H](CC(C)(C)C)NC(=O)[C@H](CO)NC(=O)[C@H](CCCNC(=N)N)NC(=O)[C@H](CO)NC1=O) [Example 231: AIC+SRS-((tBu)A)-P-(Oic)-I-((N-Me)C)+IPD-OH]
890	[Orn]ICSRSLPPICI-NH2 (disulfide 3-11; N-terminus assumed; SMILES CC[C@H](C)[C@H](NC(=O)[C@@H]1CSSC[C@H](NC(=O)[C@@H](NC(=O)[C@@H](N)CCCN)[C@@H](C)CC)C(=O)N[C@@H](CO)C(=O)N[C@@H](CCCNC(=N)N)C(=O)N[C@@H](CO)C(=O)N[C@@H](CC(C)C)C(=O)N2CCC[C@H]2C(=O)N2CCC[C@H]2C(=O)N[C@@H]([C@@H](C)CC)C(=O)N1)C(N)=O) [Example 236: (Orn)-IC+SRSLPPIC+I-NH2]
230	[Orn]ICSRSLPP[Chg]CIPD-OH (disulfide 3-11; N-terminus assumed; SMILES CC[C@H](C)[C@H](NC(=O)[C@@H](N)CCCN)C(=O)N[C@H]1CSSC[C@@H](C(=O)N[C@H](C(=O)N2CCC[C@H]2C(=O)N[C@@H](CC(=O)O)C(=O)O)[C@@H](C)CC)NC(=O)[C@H](C2CCCCC2)NC(=O)[C@@H]2CCCN2C(=O)[C@@H]2CCCN2C(=O)[C@H](CC(C)C)NC(=O)[C@H](CO)NC(=O)[C@H](CCCNC(=N)N)NC(=O)[C@H](CO)NC1=O) [Example 225: (Orn)-IC+SRSLPP-(Chg)-C+IPD-OH]
120	WICSRS[tBuAla]PPI[NMeC]I-NH2 (disulfide 3-11; N-terminus assumed; SMILES CC[C@H](C)[C@H](NC(=O)[C@@H]1CSSC[C@H](NC(=O)[C@@H](NC(=O)[C@@H](N)Cc2c[nH]c3ccccc23)[C@@H](C)CC)C(=O)N[C@@H](CO)C(=O)N[C@@H](CCCNC(=N)N)C(=O)N[C@@H](CO)C(=O)N[C@@H](CC(C)(C)C)C(=O)N2CCC[C@H]2C(=O)N2CCC[C@H]2C(=O)N[C@@H]([C@@H](C)CC)C(=O)N1C)C(N)=O) [Example 223: WIC+SRS-((tBu)A)-PPI-((N-Me)C)+I-NH2]
28	[NMeA]ICSRS[tBuAla]PPI[NMeC]IPD-NH2 (disulfide 3-11; N-terminus assumed; SMILES CC[C@H](C)[C@H](NC(=O)[C@H](C)NC)C(=O)N[C@H]1CSSC[C@@H](C(=O)N[C@H](C(=O)N2CCC[C@H]2C(=O)N[C@@H](CC(=O)O)C(N)=O)[C@@H](C)CC)N(C)C(=O)[C@H]([C@@H](C)CC)NC(=O)[C@@H]2CCCN2C(=O)[C@@H]2CCCN2C(=O)[C@H](CC(C)(C)C)NC(=O)[C@H](CO)NC(=O)[C@H](CCCNC(=N)N)NC(=O)[C@H](CO)NC1=O) [Example 175: ((N-Me)A)-IC+SRS-((tBu)A)-PPI-((N-Me)C)+IPD-NH2]
150	AICSRS[Phe(2-Cl)]PPI[NMeC]IPD-NH2 (disulfide 3-11; N-terminus assumed; SMILES CC[C@H](C)[C@H](NC(=O)[C@H](C)N)C(=O)N[C@H]1CSSC[C@@H](C(=O)N[C@H](C(=O)N2CCC[C@H]2C(=O)N[C@@H](CC(=O)O)C(N)=O)[C@@H](C)CC)N(C)C(=O)[C@H]([C@@H](C)CC)NC(=O)[C@@H]2CCCN2C(=O)[C@@H]2CCCN2C(=O)[C@H](Cc2ccccc2Cl)NC(=O)[C@H](CO)NC(=O)[C@H](CCCNC(=N)N)NC(=O)[C@H](CO)NC1=O) [Example 238: AIC+SRS-((2-Chloro)F)-PPI-((N-Me)C)+IPD-NH2]
130	FICSRS[tBuAla]PPI[NMeC]I-NH2 (disulfide 3-11; N-terminus assumed; SMILES CC[C@H](C)[C@H](NC(=O)[C@@H]1CSSC[C@H](NC(=O)[C@@H](NC(=O)[C@@H](N)Cc2ccccc2)[C@@H](C)CC)C(=O)N[C@@H](CO)C(=O)N[C@@H](CCCNC(=N)N)C(=O)N[C@@H](CO)C(=O)N[C@@H](CC(C)(C)C)C(=O)N2CCC[C@H]2C(=O)N2CCC[C@H]2C(=O)N[C@@H]([C@@H](C)CC)C(=O)N1C)C(N)=O) [Example 181: FIC+SRS-((tBu)A)-PPI-((N-Me)C)+I-NH2]
300	G[NMeI]CSRSLPPICIPD-NH2 (disulfide 3-11; also: HCl salt) [Example 205: G-((N-Me)I)-C+SRSLPPIC+IPD-NH2 (HCl salt)]
13	YICSRS[tBuAla]PPI[NMeC]I-NH2 (disulfide 3-11; N-terminus assumed; SMILES CC[C@H](C)[C@H](NC(=O)[C@@H]1CSSC[C@H](NC(=O)[C@@H](NC(=O)[C@@H](N)Cc2ccc(O)cc2)[C@@H](C)CC)C(=O)N[C@@H](CO)C(=O)N[C@@H](CCCNC(=N)N)C(=O)N[C@@H](CO)C(=O)N[C@@H](CC(C)(C)C)C(=O)N2CCC[C@H]2C(=O)N2CCC[C@H]2C(=O)N[C@@H]([C@@H](C)CC)C(=O)N1C)C(N)=O) [Example 182: YIC+SRS-((tBu)A)-PPI-((N-Me)C)+I-NH2]
